This note sets out measurements from patent publication US11433139B2, “Peptide vaccines against interleukin-31” (Zoetis Services LLC, priority 2018, dated 2022).

Data set [1] relates to feline IL-31. Description: Inhibition of feline IL-31 induced pSTAT3 signaling in canine DH-82 cells. The data set is classed as cell-based. Conditions: feline IL-31, pSTAT3, canine DH82 cells (FIG. 3). The gist of the method: (§1)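 DH-82 cells primed with canine IFN-γ 10 ng/mL for 24 h, FCWF4 with feline IFN-γ 125 ng/mL for 96 h, then serum-starved 2 h. mAb pre-incubated 1 h with 1 μg/mL canine or 0.2 μg/mL feline IL-31, cells stimulated 5 min; pSTAT3 by AlphaLISA SureFire, IC50 as half-maximal signalling reduction.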
Target sequence in this assay (as listed by the source): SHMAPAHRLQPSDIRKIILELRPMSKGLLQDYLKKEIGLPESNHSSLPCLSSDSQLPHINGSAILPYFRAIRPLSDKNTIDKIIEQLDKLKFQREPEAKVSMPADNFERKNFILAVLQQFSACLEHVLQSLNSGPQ

The subject of data set [2] is feline IL-31. Description: Inhibition of feline IL-31 induced pSTAT3 signaling in feline FCWF4 macrophage-like cells. The data set is classed as cell-based. Particulars: 0.2 μg/mL feline IL-31, pSTAT3, FCWF4 cells (FIG. 3). A digest of the protocol: as §1
In another data set the target is T1, canine IL-31 (Canis lupus familiaris, UniProt A0A8I3S3D1).
T1 construct: made in house; host or cells: CHO cells (CHROMOS ACE system)
T1 sequence (A0A8I3S3D1 24-159): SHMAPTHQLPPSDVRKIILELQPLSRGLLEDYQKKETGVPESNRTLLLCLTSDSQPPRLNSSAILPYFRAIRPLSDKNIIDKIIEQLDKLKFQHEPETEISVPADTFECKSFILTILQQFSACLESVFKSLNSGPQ
Kind of data set: Inhibition of canine IL-31 induced pSTAT3 signaling in canine DH-82 and feline FCWF4 cells. It counts as cell-based. Conditions: canine IL-31; canine and feline cell types, cell type of the values not specified. Here is the method:
To identify candidates with inhibitory activity, antibodies were assessed for their ability to affect IL-31-mediated STAT3 phosphorylation in either a canine or feline cell-based assay. STAT3 phosphorylation was determined in canine DH-82 (ATCC® CRL-10389™) or feline FCWF4 macrophage-like cells (ATCC CRL-2787). DH82 and FCWF4 cells were primed with canine interferon gamma (R&D Systems, Minneapolis, Minn.) at 10 ng/mL for 24 hours or feline interferon gamma (R&D Systems, Minneapolis, Minn.) at 125 ng/mL for 96 hours, respectively, to increase receptor expression. Both cell types were serum starved for 2 hours prior to IL-31 and mAb treatment. Using two independent methods, all candidate mAbs were evaluated for their ability to inhibit either 1 μg/mL canine or 0.2 μg/mL feline IL-31 induced STAT3 phosphorylation. […] To ensure complex formation, a one hour co-incubation of mAb and IL-31 cytokine prior to cell stimulation was completed. IL-31 cell stimulation was carried out for five minutes. STAT3 phosphorylation was measured using AlphaLISA SureFire ULTRA™ technology (Perkin Elmer, Waltham, Mass.). In the case where antibody concentration and purity are unknown, hybridoma supernatants were qualitatively measured for their ability to inhibit STAT3 phosphorylation following a 1 hour co-incubation with […] IL-31. The potency of individual monoclonal antibodies defined by their ability to inhibit IL-31 mediated STAT3 phosphorylation in these assays was considered the key selection criteria for further advancement of select antibodies. The term potency refers to the IC50 value calculated from these assays and is the concentration of the antibody where signaling induced by IL-31 is reduced to one half its maximal value.

Data set [3] deals with feline IL-31. Kind of data set: Cat pruritus challenge model, subcutaneous antibody then IL-31 challenge. The data set is classed as in vivo. Particulars: cats, 4 mg/kg subcutaneously day 0; 0.5 μg/kg i.v. IL-31 challenge days 7, 21, 28. The protocol: The efficacy of the fully felinized anti feline IL-31 mAb ZTS-361 was assessed for its ability to neutralize pruritic behavior in an IL-31 induced in vivo cat model. […] As shown in this graph, the variance of pruritic behavior scored for both T01 and T02 groups prior to IL-31 challenge varied little with the number of pruritic events observed between 0 and 10 within the 30 minute observation period. This study differed from the preliminary feline challenge model described above in section 1.13 in that on day zero cats were dosed with 4 mg/kg ZTS-361 subcutaneously without combination with feline IL-31 to generate a pre-bound complex. This represents a more rigorous assessment of efficacy as antibody ZTS-361 will be in circulation for seven days prior to the first IL-31 challenge requiring the antibody to have sufficient exposure to bind and neutralize circulating IL-31.
For this study, pruritic behavior was assessed on days 7, 21, and 28 for 1 hour following a 0.5 μg/kg intravenous challenge of the IL-31 protein.
Target sequence in this assay (as listed by the source): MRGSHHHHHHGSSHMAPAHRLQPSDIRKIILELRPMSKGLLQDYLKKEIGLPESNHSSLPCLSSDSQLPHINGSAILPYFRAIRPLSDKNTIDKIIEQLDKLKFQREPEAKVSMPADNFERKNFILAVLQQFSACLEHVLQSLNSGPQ

Data set [4] deals with feline IL-31. Kind of data set: Affinity of anti-IL-31 antibodies by surface plasmon resonance (Biacore), feline IL-31 surface. It counts as binding. Conditions: IL-31 conjugated to the surface (FIG. 2). The gist of the method: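 IL-31 amine-coupled (NHS/EDC) at 5 μg/mL directly onto the SPR chip, quenched with ethanolamine; candidate mAbs flowed over as analyte. KD from 1:1 model fits; values below 1×10^−11 M are under the instrument's lower quantitation limit.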
Target sequence in this assay (as listed by the source): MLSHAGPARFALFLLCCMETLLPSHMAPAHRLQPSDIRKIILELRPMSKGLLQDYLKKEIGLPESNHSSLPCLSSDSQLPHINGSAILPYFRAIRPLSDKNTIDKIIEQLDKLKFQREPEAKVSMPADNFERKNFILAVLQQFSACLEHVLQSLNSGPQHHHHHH
In general terms: In SPR one partner is held on a chip, and binding of the other changes the refractive index at the surface.

Data set [5] is described as follows: Stability of cIL-31 following dialysis into PBS. It counts as physicochemical. The text has this: The Interleukin 31 protein varies in amino acid sequence conservation among homologous species (FIGS. 1A and 1B) but is believed to have common structural architecture with other members of the type I cytokine family (Boulay et al. 2003, Immunity. August; 19(2):159-632003; Dillon et al. 2004 Nat Immunol. July; 5(7):752-60). This up-down bundle topology is significant to the mode of receptor recognition shared by these cytokines (Dillon et al. supra, Cornelissen et al. 2012 Eur J Cell Biol. June-July; 91(6-7):552-66). With variation in IL-31 protein sequence identities between different species, it is not possible to predict if antibodies raised against one species will cross-react with others given different epitope propensities and local amino acid compositions. As a consequence, multiple forms of IL-31 protein were considered for this work representing multiple species and expression systems. The canine IL-31 protein (cIL-31) was produced to use as an immunogen and a reagent to test affinity and potency of antibody hits. […] Protein concentration was determined using a bicinchoninic assay (BCA assay) with Bovine Serum Albumin (BSA) as a standard (ThermoFisher Scientific, Inc., Rockford, Ill.). […]

The nature of data set [6]: Pharmacokinetic profile of canine IL-31 in dogs. It counts as in vivo, dog. Particulars: subcutaneous dose of 1.75 μg/kg, within the first hour. Here is the method: A recent study was performed to determine serum IL-31 levels in cats with a presumptive diagnosis of allergic dermatitis (AD) from several different geographic regions in the USA. […] To understand the levels of canine IL-31 in a previous model development study, the pharmacokinetic profile of canine IL-31 was analyzed in dogs following administration of a subcutaneous dose of 1.75 μg/kg. […] Based on these findings it is reasonable to believe that an intravenous dose of 0.5 μg/kg feline IL-31 used in this feline model will result in a circulating amount that is far excessive to that observed in the naturally occurring disease state for dogs and cats.

B1: ZTS-361: felinized anti IL-31 15H05 mAb, FEL_15H05_VH1 with Feline_HC_AlleleA_1, FEL-15H05-VL1_FW2 light chain (antibody, V domains shown)
VH: QVLLVQSGAEVRTPGASVKIFCKASGYSFTSYTIHWLRQAPAQGLEWMGNINPTSGYTENNQRFKDRLTLTADTSTNTAYMELSSLRSADTAMYYCARWGFKYDGEWSFDVWGAGTTVTVSS
VL: EIQMTQSPSSLSASPGDRVTITCRASQGISIWLSWYQQKPGNIPKVLINKASNLHIGVPSRFSGSGSGTDFTLTISSLEPEDAATYYCLQSQTYPLTFGGGTKLEIK
modifications: feline constant regions joined; Felinized variable heavy mAb sequence, from Mus musculus and Felis catus; Felinized variable light mAb sequence, from Mus musculus and Felis catus
Turning to B1, in the data set on feline IL-31 [1], the “potency (IC50) against feline IL-31 in canine DH82 cells” value was “highly consistent with values derived from the chimeric and mouse form”. Also, in the data set on feline IL-31 [2], the “potency (IC50) against feline IL-31 in feline FCWF4 cells” value was “highly consistent with values derived from the chimeric and mouse form”. Besides, the “IC50 against canine IL-31” value with canine IL-31 is listed as “proportionally higher”. Moreover, in the data set with feline IL-31 [3], the “reduction in pruritus compared to vehicle placebo control” value is recorded as “significant reduction in pruritus”. Further, the “affinity (KD) to feline IL-31” value on feline IL-31 [4] was “highly consistent with that of the mouse and chimeric form”.

B2: canine IL-31: recombinant canine IL-31 protein (SEQ ID NO: 155) produced in CHO cells (protein, listed as Canis familiaris)
chain: MLSHTGPSRFALFLLCSMETLLSSHMAPTHQLPPSDVRKIILELQPLSRGLLEDYQKKETGVPESNRTLLLCLTSDSQPPRLNSSAILPYFRAIRPLSDKNIIDKIIEQLDKLKFQHEPETEISVPADTFECKSFILTILQQFSACLESVFKSLNSGPQ
With B2, in data set [5] (PBS, several days at 4° C.), the “stability, proteolysis” value is given as “no proteolysis was observed”. Further, the “stability, precipitation” value in data set [5] (following dialysis into PBS) is “No precipitation was observed”. In addition, the “peak plasma levels, maximum” value in data set [6] is on record as “about 30 ng/ml”.
